Experimental data taken from article PMC8260879.

How the values were obtained:
[1] = target: EphA4 WT fused to C-terminal mTURQ or EYFP (human) (UniProt P54764); experiment: fluorescence intensity fluctuation (FIF) analysis; molecular brightness in regions of the basolateral membrane of transfected HEK293 cells, no ligand, data over the whole range of receptor concentrations
[2] = target: EphA4 WT fused to C-terminal mTURQ or EYFP (human) (UniProt P54764); experiment: fluorescence intensity fluctuation (FIF) analysis; molecular brightness, no ligand, only the data at receptor concentrations above 3000 receptors/μm^2
[3] = target: EphA4 WT fused to C-terminal mTURQ or EYFP (human) (UniProt P54764); experiment: FRET or BRET; FSI-FRET as without ligand but with 0.5 μg/ml ephrinA5-Fc in the hypo-osmotic medium; monomer-dimer equilibrium: dimer to monomers
[4] = target: EphA4 WT fused to C-terminal mTURQ or EYFP (human) (UniProt P54764); experiment: fluorescence intensity fluctuation (FIF) analysis; molecular brightness in transfected HEK293 cells in the presence of ephrinA5-Fc
[5] = target: EphA4 WT fused to C-terminal mTURQ or EYFP (human) (UniProt P54764); experiment: FRET or BRET; FSI-FRET of mTURQ- and EYFP-tagged receptor in the plasma membrane of live HEK293T cells, no ligand, hypo-osmotic medium; fit of a monomer-dimer equilibrium (Equation 2): dimer to monomers; constants in two-dimensional concentration

Question: With “EphA4 WT fused to C-terminal mTURQ or EYFP (from UniProt P54764-1 20-986) (receptor)” as the substance, how does the molecular brightness at the peak of the distribution [1] read?
Answer: < 2

Question: And the stoichiometry N [2]?
Answer: 2

Question: What about the stoichiometry N [3] of the same substance?
Answer: 2

Question: And the molecular brightness at the maximum of the distribution [4]?
Answer: < 2

Question: And the oligomeric fraction above 3000 receptors/μm^2 [5]?
Answer: > 65%

Question: And the stoichiometry N [5]?
Answer: 2
